Each block holds one binder with its values, some of them ahead of it.
Key:
[1] = molecular target: human alpha-synuclein (wild-type, recombinant) (human); assay: cell-based or functional assay
[2] = molecular target: Polo like kinase 2 (PLK2) (human); assay: cell-based or functional assay

percentage of phospho-synuclein by ELISA, cDNA transfected into PEAK-Syn cells [1]: 8.9%
B1: Protein kinase, cGMP-dependent, regulatory, Type I (enzyme, human, UniProt Q13976-2 1-686, looked up)
chain: MGTLRDLQYALQEKIEELRQRDALIDELELELDQKDELIQKLQNELDKYRSVIRPATQQAQKQSASTLQGEPRTKRQAISAEPTAFDIQDLSHVTLPFYPKSPQSKDLIKEAILDNDFMKNLELSQIQEIVDCMYPVEYGKDSCIIKEGDVGSLVYVMEDGKVEVTKEGVKLCTMGPGKVFGELAILYNCTRTATVKTLVNVKLWAIDRQCFQTIMMRTGLIKHTEYMEFLKSVPTFQSLPEEILSKLADVLEETHYENGEYIIRQGARGDTFFIISKGTVNVTREDSPSEDPVFLRTLGKGDWFGEKALQGEDVRTANVIAAEAVTCLVIDRDSFKHLIGGLDDVSNKAYEDAEAKAKYEAEAAFFANLKLSDFNIIDTLGVGGFGRVELVQLKSEESKTFAMKILKKRHIVDTRQQEHIRSEKQIMQGAHSDFIVRLYRTFKDSKYLYMLMEACLGGELWTILRDRGSFEDSTTRFYTACVVEAFAYLHSKGIIYRDLKPENLILDHRGYAKLVDFGFAKKIGFGKKTWTFCGTPEYVAPEIILNKGHDISADYWSLGILMYELLTGSPPFSGPDPMKTYNIILRGIDMIEFPKKIAKNAANLIKKLCRDNPSERLGNLKNGVKDIQKHKWFEGFNWEGLRKGTLTPPIIPSVASPTDTSNFDSFPEDNDEPPPDDNSGWDIDF

percent phospho-synuclein by ELISA, PLK2, synuclein and synphilin co-transfected into HEK cells [2]: 83.3%
B2: synphilin (protein, UniProt Q9Y6H5 1-919, looked up)
chain: MEAPEYLDLDEIDFSDDISYSVTSLKTIPELCRRCDTQNEDRSVSSSSWNCGISTLITNTQKPTGIADVYSKFRPVKRVSPLKHQPETLENNESDDQKNQKVVEYQKGGESDLGPQPQELGPGDGVGGPPGKSSEPSTSLGELEHYDLDMDEILDVPYIKSSQQLASFTKVTSEKRILGLCTTINGLSGKACSTGSSESSSSNMAPFCVLSPVKSPHLRKASAVIHDQHKLSTEETEISPPLVKCGSAYEPENQSKDFLNKTFSDPHGRKVEKTTPDCQLRAFHLQSSAAESKPEEQVSGLNRTSSQGPEERSEYLKKVKSILNIVKEGQISLLPHLAADNLDKIHDENGNNLLHIAASQGHAECLQHLTSLMGEDCLNERNTEKLTPAGLAIKNGQLECVRWMVSETEAIAELSCSKDFPSLIHYAGCYGQEKILLWLLQFMQEQGISLDEVDQDGNSAVHVASQHGYLGCIQTLVEYGANVTMQNHAGEKPSQSAERQGHTLCSRYLVVVETCMSLASQVVKLTKQLKEQTVERVTLQNQLQQFLEAQKSEGKSLPSSPSSPSSPASRKSQWKSPDADDDSVAKSKPGVQEGIQVLGSLSASSRARPKAKDEDSDKILRQLLGKEISENVCTQEKLSLEFQDAQASSRNSKKIPLEKRELKLARLRQLMQRSLSESDTDSNNSEDPKTTPVRKADRPRPQPIVESVESMDSAESLHLMIKKHTLASGGRRFPFSIKASKSLDGHSPSPTSESSEPDLESQYPGSGSIPPNQPSGDPQQPSPDSTAAQKVATSPKSALKSPSSKRRTSQNLKLRVTFEEPVVQMEQPSLELNGEKDKDKGRTLQRTSTSNESGDQLKRPFGAFRSIMETLSGNQNNNNNYQAANQLKTSTLPLTSLGRKTDAKGNPASSASKGKNKAA
